{"source": "patent US20260109963A1", "about": "“COMPOSITIONS, SYSTEMS, AND METHODS FOR REDUCING ADIPOSE TISSUE” (Oisin Biotechnologies, Inc., priority 2023, published 2026)", "origin": "cited, not measured here", "test_system": "Heart", "details": "almost completely abrogated after IV delivery"}
{"molecule": "miR1d: miRNA/target site de-targeting heart & skeletal muscle (nucleic acid, listed as DNA, chemistry not fully specified; the letters are possibly those of the target site, miRNA/target site de-targeting heart & skeletal muscle) GGCCGGCCAATACATACTTCTTTACATTCCACGATAATACATACTTCTTTACATTCCAACCGGTAATACATACTTCTTTACATTCCATCACAATACATACTTCTTTACATTCCAGGCCGGCC", "values": [{"measurement": "transgene expression in heart (in words)", "value": "Transgene expression in heart almost"}]}
